Measured values: US20170029530A1 (AbbVie / Abbott, published 2017)

Key:
Experiment in all cases: SPR, BIAcore 2000, antibody captured with anti-human capture kit
[1] = biological target: T1, rat DPEP3 ECD with histidine tag (rat, UniProt Q5U2X4 36-459, limits assumed)
T1 construct: also called rDPEP3-His; ratDPEP3-His; not shown: histidine tag
T1 sequence: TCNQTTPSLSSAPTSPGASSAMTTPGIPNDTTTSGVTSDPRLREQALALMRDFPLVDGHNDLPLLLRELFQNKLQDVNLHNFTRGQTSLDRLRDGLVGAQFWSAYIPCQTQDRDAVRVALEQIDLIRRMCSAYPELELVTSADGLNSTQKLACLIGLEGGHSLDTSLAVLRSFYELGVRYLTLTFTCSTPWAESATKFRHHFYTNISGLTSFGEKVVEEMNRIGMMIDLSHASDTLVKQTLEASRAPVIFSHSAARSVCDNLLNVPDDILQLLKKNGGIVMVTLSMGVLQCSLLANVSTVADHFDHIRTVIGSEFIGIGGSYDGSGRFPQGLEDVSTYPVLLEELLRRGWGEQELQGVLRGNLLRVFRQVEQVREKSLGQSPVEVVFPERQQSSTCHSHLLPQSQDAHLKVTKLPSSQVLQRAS

hDPEP1-His = biological target: T2, hDPEP1-His (human, UniProt P16444 17-385, limits assumed)
T2 construct: Neither the origin nor the limits of this protein are described; not shown: histidine tag
T2 sequence (looked up): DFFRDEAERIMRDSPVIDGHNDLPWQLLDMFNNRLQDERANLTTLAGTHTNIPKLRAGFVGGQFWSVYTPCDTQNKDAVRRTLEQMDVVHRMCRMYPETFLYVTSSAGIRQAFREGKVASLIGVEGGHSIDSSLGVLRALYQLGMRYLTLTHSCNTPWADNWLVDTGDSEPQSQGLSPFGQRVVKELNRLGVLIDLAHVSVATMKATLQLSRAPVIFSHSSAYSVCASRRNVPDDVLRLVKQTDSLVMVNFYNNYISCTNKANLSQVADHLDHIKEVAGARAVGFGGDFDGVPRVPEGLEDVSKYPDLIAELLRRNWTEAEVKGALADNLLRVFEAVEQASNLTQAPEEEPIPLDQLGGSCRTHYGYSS

[2] = biological target: T3, hDPEP2 ECD with histidine tag (human, UniProt Q9H4A9 33-463)
T3 construct: also called hDPEP2-His; not shown: histidine tag
T3 sequence (Q9H4A9 33-463): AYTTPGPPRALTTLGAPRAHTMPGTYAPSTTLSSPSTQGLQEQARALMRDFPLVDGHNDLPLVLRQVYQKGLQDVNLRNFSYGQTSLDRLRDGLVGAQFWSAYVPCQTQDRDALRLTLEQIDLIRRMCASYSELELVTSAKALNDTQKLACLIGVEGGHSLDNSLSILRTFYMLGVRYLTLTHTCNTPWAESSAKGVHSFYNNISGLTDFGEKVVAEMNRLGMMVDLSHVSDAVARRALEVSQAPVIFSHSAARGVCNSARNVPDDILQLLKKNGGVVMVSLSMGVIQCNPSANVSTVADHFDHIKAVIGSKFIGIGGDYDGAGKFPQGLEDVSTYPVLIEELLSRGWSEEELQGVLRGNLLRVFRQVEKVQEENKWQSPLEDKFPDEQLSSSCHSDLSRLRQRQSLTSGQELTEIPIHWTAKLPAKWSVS

binding result [1]: no binding
binding result (hDPEP1-His): no binding
binding result [2]: binds
B1: hSC34.14 humanized anti-DPEP3 antibody (antibody, human IgG1, kappa, V domains shown)
VH: QVQLVQSGAEVKKPGASVKVSCKASGYTFTDYYMHWVRQAPGQRLEWMGRVNPKKGGTTYNQKFEGRVTITRDTSASTAYMELSSLRSEDTAVYYCAMGIYYSYDASFDYWGQGTTVTVSS
VL: DIQMTQSPSSLSASVGDRVTITCRTSEHIYSYLAWYQQKPGKAPKLLIYNAKTLAEGVPSRFSGSGSGTDFTLTISSLQPEDFATYYCQHHYDTPYTFGQGTKLEIKR
notes: Human IgG1/kappa
